Experimental data published in patent US20120231006A1 (Amgen, published 2012).

Key:
[1] = target: T1, mOrai1-hOrai1 ECL2 (…) protein (human/mouse chimera, UniProt Q8BWG9 1-304 (mouse entry)); test: FACS, 293EBNA transfectants [D00030 FIG. 16D]
T1 construct: also called Ch
Description: (§1) FIG. 16A-D illustrates the results of FACS analysis showing binding to the indicated mOrai1-hOrai1 ECL2 chimeric mutants expressed on the surface of HEK-293-EBNA cells. Transfected cells were stained first with recombinant monoclonal antibodies then counter-stained with a secondary phycoerythrin-labeled goat (“Gt”) anti-human (“Hu”) IgG F(ab′)₂ antibody fragment and visualized using FACS. In FIG. 16B and FIG. 16D, The values of Relative Fluorescence Intensity as Percent of Control (RFI-POC) are calculated from the relative fluorescence intensity geometric mean (Geo Mean). The geometric mean is an average calculated by multiplying a series of numbers and taking the nth root where n is the number of numbers in the series. It is a statistical average of a set of transformed numbers often used to represent a central tendency in a highly variable data set that minimizes the effects of extreme values.
(§2) Table 11A and Table 11B feature a schematic representation of the POC data from FIG. 16B and FIG. 16D, respectively, where the binding results are recorded as (+++) denoting binding POC from 40% to 100%, (++) for POC of 5% to less than 40%, (+) for POC from 1% to less than 5% and (−) as lack of binding with POC less than 1%.

[2] = target: T2, mOrai1-hOrai1 ECL2 (AESVIV) protein (human/mouse chimera, UniProt Q8BWG9 1-304 (mouse entry)); test: FACS, 293EBNA transfectants [D00030 FIG. 16D]
T2 construct: also called Ch
Description: as §1, §2

[3] = target: T3, mOrai1-hOrai1 ECL2 chimeric protein (human/mouse chimera, UniProt Q8BWG9 1-304 (mouse entry)); test: FACS, 293EBNA transfectants [D00028 FIG. 16B]
T3 construct: mouse Orai1 with human ECL2; also called Ch
Description: as §1, §2

[4] = target: T4, mOrai1-hOrai1 ECL2 (VIV) protein (human/mouse chimera, UniProt Q8BWG9 1-304 (mouse entry)); test: FACS, 293EBNA transfectants [D00028 FIG. 16B]
T4 construct: also called Ch
Description: as §1, §2

[5] = target: T5, mOrai1-hOrai1 ECL2 (HSD) protein (human/mouse chimera, UniProt Q8BWG9 1-304 (mouse entry)); test: FACS, 293EBNA transfectants [D00028 FIG. 16B]
T5 construct: also called Ch
Description: as §1, §2

[6] = target: T1, mOrai1-hOrai1 ECL2 (…) protein; test: FACS, 293EBNA, RFI-POC grade; parameters: concentration or dose not given beside the values
In short: (§3)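 HEK-293-EBNA cells expressing mOrai1-hOrai1 ECL2 chimeric mutants stained with recombinant monoclonal antibodies, then PE-labelled goat anti-human IgG F(ab′)2, and analysed by FACS. RFI-POC derived from geometric mean fluorescence; graded +++ (40–100%), ++ (5–<40%), + (1–<5%), − (<1%).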

[7] = target: T2, mOrai1-hOrai1 ECL2 (AESVIV) protein; test: FACS, 293EBNA, RFI-POC grade; parameters: concentration or dose not given beside the values
In short: as §3

T1 sequence (Q8BWG9 other isoform, or with tags, fused parts or gaps): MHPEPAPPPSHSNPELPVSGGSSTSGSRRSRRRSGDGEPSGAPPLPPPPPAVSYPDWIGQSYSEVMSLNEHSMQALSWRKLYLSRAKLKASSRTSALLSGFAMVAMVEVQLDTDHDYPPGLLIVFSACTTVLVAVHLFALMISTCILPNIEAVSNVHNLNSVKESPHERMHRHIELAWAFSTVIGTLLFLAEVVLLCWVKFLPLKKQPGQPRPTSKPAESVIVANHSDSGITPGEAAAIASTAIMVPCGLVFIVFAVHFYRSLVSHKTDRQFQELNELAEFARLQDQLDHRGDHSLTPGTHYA
T2 sequence (Q8BWG9 other isoform, or with tags, fused parts or gaps): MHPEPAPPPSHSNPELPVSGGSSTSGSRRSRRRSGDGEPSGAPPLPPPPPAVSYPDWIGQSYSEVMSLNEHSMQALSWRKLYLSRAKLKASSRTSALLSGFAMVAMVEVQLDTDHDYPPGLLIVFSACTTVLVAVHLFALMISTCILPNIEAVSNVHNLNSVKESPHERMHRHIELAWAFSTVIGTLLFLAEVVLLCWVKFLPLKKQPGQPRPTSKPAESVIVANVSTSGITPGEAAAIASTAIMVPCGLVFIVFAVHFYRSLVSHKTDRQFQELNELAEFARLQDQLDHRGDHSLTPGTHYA
T3 sequence (Q8BWG9 other isoform, or with tags, fused parts or gaps mutant): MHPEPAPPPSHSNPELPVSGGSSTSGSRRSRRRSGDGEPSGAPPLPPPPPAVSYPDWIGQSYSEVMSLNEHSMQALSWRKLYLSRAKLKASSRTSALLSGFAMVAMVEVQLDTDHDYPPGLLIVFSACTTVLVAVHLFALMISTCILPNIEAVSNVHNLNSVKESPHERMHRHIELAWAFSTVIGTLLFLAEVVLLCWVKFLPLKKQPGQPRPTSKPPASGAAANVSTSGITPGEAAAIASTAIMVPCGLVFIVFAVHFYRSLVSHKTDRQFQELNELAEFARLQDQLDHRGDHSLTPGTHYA
T5 sequence (Q8BWG9 other isoform, or with tags, fused parts or gaps): as the sequence (Q8BWG9 other isoform, or with tags, fused parts or gaps mutant) above, with V226H, T228D counted along it
T4 sequence (Q8BWG9 other isoform, or with tags, fused parts or gaps): as the sequence (Q8BWG9 other isoform, or with tags, fused parts or gaps mutant) above, with G221V, A222I, A223V counted along it

B1: mAb 2D2.1 (antibody, human IgG2, lambda, V domains shown)
VH: QVQLQQWGAGLLKPSETLSLTCAVYGGSFSGYYWSWIRQPPGKGLEWIGEIDHSGRINYNPALKSRLTISVDTSKNQFSLKLSSVTAADTAVYYCARAGSGGYEDWFDPWGQGTLVTVSS
VL: QSVLTQPPSVSGAPGQRVTISCTGSSSNIGAGYNVHWYQQFPRTDPKLLIYVYNIRPSGVPDRFSGSRSGTSASLAITGLQTEDEADYYCQSYDSSLSGVVFGGGTKLTVLG
notes: fully human IgG2 lambda, Campaign 1; also called mAb 2D.1
binding result [1]: binds
binding result [2]: binds

B2: mAb 2B4.1 (antibody, human IgG2, lambda, V domains shown)
VH: QVQLVQSGAEVKKPGASVKVSCKASGYTFTDYYMHWVRQAPGQGLEWMGWINPNSGGTNYVQKFQDRVTMTRDTSITTAYMELTRLRSDDTAVYYCAREEGDYGMDVWGQGTTVTVSS
VL: QSVLTQPPSVSGAPGQRVTISCTGSNSNIGTGYDVHWYQKLPGTAPRLLIYSHFNRPSGVPDRFSGSTSGTSASLAITGLQAEDEADYYCQSYDSSLSGSVFGGGTKLTVLG
binding result [3]: binds
binding result [4]: binds
binding result [5]: binds

B3: mAb 5B1.1 (antibody, human IgG2, lambda, V domains shown)
VH: QVQLVQSGAEVKKPGASVKVSCKASGYTFTDYYINWVRQAPGQGLEWMGWINPNSGGSSYAQKFQGRVTMTRDTSISTAHMELIRLRSDDTAVYYCARERGGIEDWFDPWGQGTLVTVSS
VL: QSVLTQPPSVSGAPGQRVTISCTGSSSNIGAGYDVHWYQQLPGTAPKLLIYGNSNRPSGVPDRFSGSKSGTSASLAITKFQAEDEAVYYCQSYGSGLSGVVFGGGTKLTVLG
notes: fully human IgG2 lambda, Campaign 2; also called mAb 5Bl1.1
POC (percent of control, FACS Geo Mean relative to binding to Ch. 1) [6]: 1 to 5%
POC (percent of control, FACS Geo Mean relative to binding to Ch. 1) [7]: 1 to 5%
